Test results: US20230374526A1, “FORSKOLIN-INDUCIBLE PROMOTERS AND HYPOXIA-INDUCIBLE PROMOTERS” (ASKLEPIOS BIOPHARMACEUTICAL, INC., priority 2020, published 2023)

test system: HEK293 cells; assay: Luciferase expression from new HRE3 hypoxia-inducible promoter designs, normoxia vs 24 h hypoxia; format: cell-based, human; conditions: HEK293, N=3
Source text: Promoters were designed using HRE3 (SEQ ID NO: 9) described above. The promoters were designed around a base enhancer element: • […]gataa[…] GTATGtgcgt[…]gataaACCTTGAGTACGTGCGT CTCTGCACGTATGtgcgt[…]gataaACCTTGAGT […] (SEQ ID NO: 139) • HRE3 is in capital letters
This enhancer was operably linked with the following minimal promoters, with a 5 bp spacer between the enhancer and the minimal promoter: • YB-Tata (HYPN) • Short CMV (HYBNC) • CMV53 (HYBNC53) • MinTK (HYBNMinTK) • 30 MLP (HYBNMLP) • SV40 (HYBNSV) • pJB42 (HYBNpJB42)
This enhancer was also operably liked with another minimal promoter named TATA-m6A (HYBNTATAm6a): • […]aagcttggactaaagcggacttgtctcgag (SEQ ID NO: 101)
These new designs were transfected in HEK293 cells as described above and the results of their expression in hypoxia and normoxia are shown in FIG. 15.

Row | Molecule | Luciferase activity in normoxia | Luciferase expression after 24 hours in hypoxia (vs normoxia)
1 | HYBN-SV: hypoxia-inducible promoter, SEQ ID NO: 145; 6 HRE3 elements, SV40 (nucleic acid, Synp-HYBNSV, 6 HRE3 elements, SV40) DNA: AATAAAATATCTTTATTTTCATTACATCTGTGTGTTGGTTTTTTGTGTGACCTTGAGTACGTGCGTCTCTGCACGTATGGATAAACCTTGAGTACGTGCGTCTCTGCACGTATGTGCGTACCTTGAGTACGTGCGTCTCTGCACGTATGGATAAACCTTGAGTACGTGCGTCTCTGCACGTATGTGCGTACCTTGAGTACGTGCGTCTCTGCACGTATGGATAAACCTTGAGTACGTGCGTCTCTGCACGTATGTGCATCTCAATTAGTCAGCAACCATAGTCCCGCCCCTAACTCCGCCCATCCCGCCCCTAACTCCGCCCAGTTCCGCCCATTCTCCGCCCCATCGCTGACTAATTTTTTTTATTTATGCAGAGGCCGAGGCCGCCTCGGCCTCTGAGCTATTCCAGAAGTAGTGAGGAGGCTTTTTTGGAGGCCTAGGCTTTTGCAAAAAGCTT | almost no luciferase activity | induced
2 | HYBN-minTk: hypoxia-inducible promoter, SEQ ID NO: 143; 6 HRE3 elements, MinTK (nucleic acid, Synp-HYBNMinTK, 6 HRE3 elements, MinTK) DNA: AATAAAATATCTTTATTTTCATTACATCTGTGTGTTGGTTTTTTGTGTGACCTTGAGTACGTGCGTCTCTGCACGTATGGATAAACCTTGAGTACGTGCGTCTCTGCACGTATGTGCGTACCTTGAGTACGTGCGTCTCTGCACGTATGGATAAACCTTGAGTACGTGCGTCTCTGCACGTATGTGCGTACCTTGAGTACGTGCGTCTCTGCACGTATGGATAAACCTTGAGTACGTGCGTCTCTGCACGTATGTTCGCATATTAAGGTGACGCGTGTGGCCTCGAACACCGAGCGACCCTGCAGCGACCCGCTTAA | almost no luciferase activity | induced
3 | HYBN-YB: hypoxia-inducible promoter, SEQ ID NO: 140; 6 HRE3 elements spaced by 5 bp spacers, YB-TATA (nucleic acid, Synp-HYPN, 6 HRE3 elements spaced by 5 bp spacers, YB-TATA) DNA: AATAAAATATCTTTATTTTCATTACATCTGTGTGTTGGTTTTTTGTGTGACCTTGAGTACGTGCGTCTCTGCACGTATGGATAAACCTTGAGTACGTGCGTCTCTGCACGTATGTGCGTACCTTGAGTACGTGCGTCTCTGCACGTATGGATAAACCTTGAGTACGTGCGTCTCTGCACGTATGTGCGTACCTTGAGTACGTGCGTCTCTGCACGTATGGATAAACCTTGAGTACGTGCGTCTCTGCACGTATGTCTAGAGGGTATATAATGGGGGCCA | almost no luciferase activity | induced
4 | HYBN-TATAm6a: hypoxia-inducible promoter, SEQ ID NO: 147; 6 HRE3 elements, TATAm6a (nucleic acid, Synp-HYBNTATAm6a, 6 HRE3 elements, TATAm6a) DNA: AATAAAATATCTTTATTTTCATTACATCTGTGTGTTGGTTTTTTGTGTGACCTTGAGTACGTGCGTCTCTGCACGTATGGATAAACCTTGAGTACGTGCGTCTCTGCACGTATGTGCGTACCTTGAGTACGTGCGTCTCTGCACGTATGGATAAACCTTGAGTACGTGCGTCTCTGCACGTATGTGCGTACCTTGAGTACGTGCGTCTCTGCACGTATGGATAAACCTTGAGTACGTGCGTCTCTGCACGTATGTATAAAAGGCAGAGCTCGTTTAGTGAACCGAAGCTTGGACTAAAGCGGACTTGTCTCGAG | almost no luciferase activity | induced
5 | HYBN-pJB42: hypoxia-inducible promoter, SEQ ID NO: 146; 6 HRE3 elements, pJB42 (nucleic acid, Synp-HYBNpJB42, 6 HRE3 elements, pJB42) DNA: AATAAAATATCTTTATTTTCATTACATCTGTGTGTTGGTTTTTTGTGTGACCTTGAGTACGTGCGTCTCTGCACGTATGGATAAACCTTGAGTACGTGCGTCTCTGCACGTATGTGCGTACCTTGAGTACGTGCGTCTCTGCACGTATGGATAAACCTTGAGTACGTGCGTCTCTGCACGTATGTGCGTACCTTGAGTACGTGCGTCTCTGCACGTATGGATAAACCTTGAGTACGTGCGTCTCTGCACGTATGCTGACAAATTCAGTATAAAAGCTTGGGGCTGGGGCCGAGCACTGGGGACTTTGAGGGTGGCCAGGCCAGCGTAGGAGGCCAGCGTAGGATCCTGCTGGGAGCGGGGAACTGAGGGAAGCGACGCCGAGAAAGCAGGCGTACCACGGAGGGAGAGAAAAGCTCCGGAAGCCCAGCAGCG | almost no luciferase activity | induced
6 | HYBN-C: hypoxia-inducible promoter, SEQ ID NO: 141; 6 HRE3 elements, CMV-MP short (nucleic acid, Synp-HYBNC, 6 HRE3 elements, CMV-MP short) DNA: AATAAAATATCTTTATTTTCATTACATCTGTGTGTTGGTTTTTTGTGTGACCTTGAGTACGTGCGTCTCTGCACGTATGGATAAACCTTGAGTACGTGCGTCTCTGCACGTATGTGCGTACCTTGAGTACGTGCGTCTCTGCACGTATGGATAAACCTTGAGTACGTGCGTCTCTGCACGTATGTGCGTACCTTGAGTACGTGCGTCTCTGCACGTATGGATAAACCTTGAGTACGTGCGTCTCTGCACGTATGGCGATTAATCCATATGCGTAGGCGTGTACGGTGGGAGGTCTATATAAGCAGAGCT | almost no luciferase activity | induced
7 | HYBN-C53: hypoxia-inducible promoter, SEQ ID NO: 142; 6 HRE3 elements, CMV53 (nucleic acid, Synp-HYBNC53, 6 HRE3 elements, CMV53) DNA: AATAAAATATCTTTATTTTCATTACATCTGTGTGTTGGTTTTTTGTGTGACCTTGAGTACGTGCGTCTCTGCACGTATGGATAAACCTTGAGTACGTGCGTCTCTGCACGTATGTGCGTACCTTGAGTACGTGCGTCTCTGCACGTATGGATAAACCTTGAGTACGTGCGTCTCTGCACGTATGTGCGTACCTTGAGTACGTGCGTCTCTGCACGTATGGATAAACCTTGAGTACGTGCGTCTCTGCACGTATGCAACAAAATGTCGTAACAAGGGCGGTAGGCGTGTACGGTGGGAGGTCTATATAAGCAGAGCTCGTTTAGTGAACCG | almost no luciferase activity | induced
8 | HYBN-MLP: hypoxia-inducible promoter, SEQ ID NO: 144; 6 HRE3 elements, MLP (nucleic acid, Synp- HYBNMLP, 6 HRE3 elements, MLP) DNA: AATAAAATATCTTTATTTTCATTACATCTGTGTGTTGGTTTTTTGTGTGACCTTGAGTACGTGCGTCTCTGCACGTATGGATAAACCTTGAGTACGTGCGTCTCTGCACGTATGTGCGTACCTTGAGTACGTGCGTCTCTGCACGTATGGATAAACCTTGAGTACGTGCGTCTCTGCACGTATGTGCGTACCTTGAGTACGTGCGTCTCTGCACGTATGGATAAACCTTGAGTACGTGCGTCTCTGCACGTATGGGGGGGCTATAAAAGGGGGTGGGGGCGTTCGTCCTCACTCT | almost no luciferase activity | induced
